In one series the test system is MED1. The series is described as follows: MED1 protein level by western blots in MCF-7/HER2 cells. The series is classed as cell-based, human. The following applies: MCF-7/HER2, 10 μg/mL, 48 h. Here is the method:
FIGS. 10A-10D. Evidence that pRNA-HER2apt-siMED1 nanoparticles silenced MED1 expression and sensitized two other HER2+ breast cancer cells to tamoxifen treatment. FIG. 10A) Two HER2-overexpressing breast cancer cell lines MCF7/TAM and FIG. 10B) MCF7/HER2, were treated with 10 μg/mL pRNA-HER2apt-siMED1 nanoparticles or scramble control for 48 h, and then MED1 protein level was determined using western blots. FIG. 10C) MCF7/TAM and FIG. 10D) MCF7/HER2 cells were treated with 10 μg/mL pRNA nanoparticles and/or 1 μM tamoxifen (TAM) as indicated for 48 h, and then cell growth was determined using an MTT assay.
Next, the ability of pRNA-HER2apt-siMED1 nanoparticles to silence the expression of MED1 in BT474 and MDA-MB-231 human breast cancer cells was examined. Using real-time PCR analyses, a significant depletion of nearly 70% of MED1 mRNA in BT474 cells after pRNA-HER2apt-siMED1 but not pRNA-HER2apt^mut-siMED1 treatment was found (FIG. 3A).

Series [1] in a line: Hydrodynamic size by dynamic light scattering (DLS). It is filed as physicochemical. Here is the method:
Cell culture. Human breast cancer luciferase-overexpressing BT474 and MDA-MB-231 cells were maintained in DMEM medium (Hyclone, Thermo Scientific) supplemented with 10% fetal bovine serum (FBS, Sigma) and 1% penicillin/streptomycin (Corning) at 37° C. in a humidified atmosphere with 5% CO2.^53 • Generation of pRNA nanoparticles. The two strands of pRNA were synthesized with the DNA templates, which were amplified with overlapping primers (Sigma) by PCR methods, using a T7 promoter-controlled in vitro RNA transcription system as previously described^33 (Table 1). […] The hydrodynamic diameter and Tm value of pRNA nanoparticles were determined using dynamic light scattering and TGGE assay, respectively, as previously described.^54 The AFM imaging of the pRNA nanoparticles was performed at the University of Nebraska Medical Center imaging facility as previously reported.^55 Briefly, the pRNA nanoparticles (5 μL) were deposited on APS modified mica ^56 for a total of 2 min of incubation time. […] After washing three times with PBS, the cellular uptake of pRNAs was determined using a BD LSRFortessa™ flow cytometer. • Real-time PCR. […] The expression of MED 1, TFF1, c-Myc, cyclinD1 and MMP-9 was analyzed using GAPDH as the internal reference. • Western blot analyses. […]

B1: pRNA-HER2apt-siMED1: 3-WJ pRNA nanoparticle bearing a HER2-targeting RNA aptamer and two different MED1 siRNAs; strands p1 SEQ ID NO: 3, p2 SEQ ID NO: 4 (nucleic acid)
chain 1: GGACAGUGAAAGUGAGUCAAAGGAUCAAUCAUGGCCAAAGAUGUUACUUUGAGAGCCUU
chain 2: GGCUCUCAAAGUAACAUCUAAGGCCAUGUGUAUGUGGGGGGAGGACGAUGCGGUCUGCUGUGCUUGAUAUGCCCCAGACGACUCGCCCCCCACAUACUUUGUUGAUCCAAUGACUCACUUUCACUGUCCUU
modifications: 2'-F modification; third strand may lack entry; pRNA-HER2apt-siMED1, p1; pRNA-HER2apt-siMED1, p2
On to B1, for which, in the series with MED1, the MED1 silencing result was “confirmed”. For the same molecule, the hydrodynamic size in series [1] came out at 8.68±1.87 nm.

The values are drawn from patent US11110182B2, “Multifunctional RNA nanoparticles and methods for treating cancer and therapeutic resistant cancer” (University of Cincinnati, priority 2016, dated 2021).
